The test system of this data set is T1, BssHII restriction endonuclease (bssHIIR) (Bacillus stearothermophilus H3).
T1 sequence: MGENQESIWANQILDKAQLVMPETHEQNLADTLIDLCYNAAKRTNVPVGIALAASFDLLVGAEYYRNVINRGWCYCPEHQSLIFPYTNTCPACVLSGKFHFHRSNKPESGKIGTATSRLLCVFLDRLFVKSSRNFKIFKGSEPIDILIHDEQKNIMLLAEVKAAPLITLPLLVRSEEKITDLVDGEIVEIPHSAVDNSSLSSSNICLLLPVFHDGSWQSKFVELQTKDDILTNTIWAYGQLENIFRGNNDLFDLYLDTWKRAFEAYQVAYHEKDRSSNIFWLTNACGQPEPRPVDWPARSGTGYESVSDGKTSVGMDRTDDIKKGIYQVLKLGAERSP
Description: cleavage_in_vitro. The conditions noted are these: cell extract; activity seen after 10- and 100-fold dilution.

With lambda DNA (BssHII sites), the activity (units per g wet cells) is 100000.

The record behind these values is patent US5786195.
